The values that follow come from publication PMC7005732.

For assay [1], the target named is Human non-translating 80S ribosome, puromycin-treated, purified from HeLa cells (human (endogenous in HeLa)) (UniProt P62750). Kind of assay: cryo-EM structure; in vivo pulled-out Ebp1-ribosome complex (dataset 1; merged with dataset 2 for the final map): 100 nM 80S ribosomes purified from HeLa cells without addition of recombinant Ebp1; occupancy estimated from computational particle sorting.

Assay [2] shares this target. Kind of assay: cryo-EM structure; in vitro reconstituted complex (dataset 2; merged with dataset 1 for the final map): 100 nM purified HeLa 80S ribosomes with an eightfold excess of recombinant Ebp1, SEC buffer (20 mM HEPES KOH pH 7.5, 5 mM Mg(OAc)2, 175 mM KOAc, 1 mM TCEP); occupancy estimated from computational particle sorting.

With “Endogenous Ebp1 on 80S ribosomes purified from HeLa cells (from UniProt Q9UQ80 1-394) (natural protein)”, in assay [1], the fraction of ribosomes decorated with Ebp1 is 25%. Turning to “ErbB3 receptor-binding protein (Ebp1), full-length, p48 isoform, recombinant (from UniProt Q9UQ80 1-394) (natural protein)”, the fraction of ribosomes decorated with Ebp1 in assay [2] was 75%.
